{"source": "patent US20050070001A1", "about": "“Xylosyltransferase and isoforms thereof” (priority 1999, published 2005)", "molecules": {"B1": {"name": "UDP-D-xylose:proteoglycan core protein β-D-xylosyltransferase (protein, UniProt Q86Y38 1-959, looked up)", "Xylosyltransferase 1": "MVAAPCARRLARRSHSALLAALTVLLLQTLVVWNFSSLDSGAGERRGGAAVGGGEQPPPAPAPRRERRDLPAEPAAARGGGGGGGGGGGGRGPQARARGGGPGEPRGQQPASRGALPARALDPHPSPLITLETQDGYFSHRPKEKVRTDSNNENSVPKDFENVDNSNFAPRTQKQKHQPELAKKPPSRQKELLKRKLEQQEKGKGHTFPGKGPGEVLPPGDRAAANSSHGKDVSRPPHARKTGGSSPETKYDQPPKCDISGKEAISALSRAKSKHCRQEIGETYCRHKLGLLMPEKVTRFCPLEGKANKNVQWDEDSVEYMPANPVRIAFVLVVHGRASRQLQRMFKAIYHKDHFYYIHVDKRSNYLHRQVLQVSRQYSNVRVTPWRMATIWGGASLLSTYLQSMRDLLEMTDWPWDFFINLSAADYPIRTNDQLVAFLSRYRDMNFLKSHGRDNARFIRKQGLDRLFLECDAHMWRLGDRRIPEGIAVDGGSDWFLLNRRFVEYVTFSTDDLVTKMKQFYSYTLLPAESFFHTVLENSPHCDTMVDNNLRITNWNRKLGCKCQYKHIVDWCGCSPNDFKPQDFHRFQQTARPTFFARKFEAVVNQEIIGQLDYYLYGNYPAGTPGLRSYWENVYDEPDGIHSLSDVTLTLYHSFARLGLRRAETSLHTDGENSCRYYPMGHPASVHLYFLADRFQGFLIKHHATNLAVSKLETLETWVMPKKVFKIASPPSDFGRLQFSEVGTDWDAKERLFRNFGGLLGPMDEPVGMQKWGKGPNVTVTVIWVDPVNVIAATYDILIESTAEFTHYKPPLNLPLRPGVWTVKILHHWVPVAETKFLVAPLTFSNRQPIKPEEALKLHNGPLRNAYMEQSFQSLNPVLSLPINPAQVEQARRNAASTGTALEGWLDSLVGGMWTAMDICATGPTACPVMQTCSQTAWSSFSPDPKSELGAVKPDGRLR", "notes": "enzyme (EC 2.4.2.26) purified from JAR choriocarcinoma cell culture supernatant, MW 120.000"}, "B2": {"name": "Recombinant bikunin: recombinant bikunin, the inhibitory component of human inter-α-trypsin inhibitor; XT acceptor protein (protein, UniProt P02760 206-352, looked up)", "Inter-alpha-trypsin inhibitor …": "AVLPQEEEGSGGGQLVTEVTKKEDSCQLGYSAGPCMGMTSRYFYNGTSMACETFQYGGCMGNGNNFVTEKECLQTCRTVAACNLPIVRGPCRAFIQLWAFDAVKGKCVLFPYGGCQGNGNKFYSEKECREYCGVPGDGDEELLRFSN", "modifications": "Inter-alpha-trypsin inhibitor light chain recombinant", "notes": "XT acceptor protein"}}, "key": {"recombinant XT-I": {"molecular_target": "T1, recombinant XT-I (Homo sapiens, UniProt Q86Y38)", "T1 construct": "polyhistidine leader of vector pcDNA4/HisMax-TOPO (own knowledge of the vector); made in house; host or cells: CHO-K1, transient transfection with pCG227-XT-I", "T1 sequence (Q86Y38 148-959)": "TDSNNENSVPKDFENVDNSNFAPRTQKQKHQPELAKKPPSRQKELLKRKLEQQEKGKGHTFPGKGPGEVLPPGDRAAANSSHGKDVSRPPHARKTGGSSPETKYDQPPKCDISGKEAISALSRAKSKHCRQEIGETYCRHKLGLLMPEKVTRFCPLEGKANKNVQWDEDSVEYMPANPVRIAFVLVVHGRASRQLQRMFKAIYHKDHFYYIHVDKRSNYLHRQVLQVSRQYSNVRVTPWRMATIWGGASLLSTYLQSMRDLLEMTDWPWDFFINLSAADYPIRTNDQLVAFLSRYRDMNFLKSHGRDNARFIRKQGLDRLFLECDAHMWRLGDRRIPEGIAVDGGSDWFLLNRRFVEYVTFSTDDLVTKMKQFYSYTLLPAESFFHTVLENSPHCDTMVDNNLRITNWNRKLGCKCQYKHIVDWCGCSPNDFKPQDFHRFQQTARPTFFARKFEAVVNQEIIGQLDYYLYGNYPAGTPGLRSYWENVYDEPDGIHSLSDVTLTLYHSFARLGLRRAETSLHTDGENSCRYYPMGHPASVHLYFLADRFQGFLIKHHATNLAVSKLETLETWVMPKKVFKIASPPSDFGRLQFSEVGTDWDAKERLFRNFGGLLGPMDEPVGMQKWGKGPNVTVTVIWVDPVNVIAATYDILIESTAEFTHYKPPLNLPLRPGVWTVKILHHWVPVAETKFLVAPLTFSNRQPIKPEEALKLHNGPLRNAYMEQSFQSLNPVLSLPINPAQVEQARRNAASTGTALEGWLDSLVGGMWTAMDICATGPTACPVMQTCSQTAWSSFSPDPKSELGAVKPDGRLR", "assay": "XT activity assay of recombinant XT-I expressed in CHO-K1 cells with different acceptors and with heparin", "format": "biochemical", "details": "for XT Activitiy pCG227-XT: recombinant XT-I from CHO-K1 cells, immunoprecipitated on beads, named acceptor, without heparin, n.d. = not detected (detection limit 20 μU/l)", "text": "The degenerate primers PFF-sense and Lysc-inv1 which were designed upon the amino acid sequence of proteolytic cleaved peptides of human XT-I were used in a PCR reaction with first strand cDNA of placenta poly(A)^+ mRNA as template. […] To clone the complete coding sequence of the novel cDNA, the RACE strategy was employed. The cDNA finally obtained was 3608 bp (FIG. 8A) and contained a single open reading frame encoding a protein of 865 amino acids with a molecular mass of 97.000. The 3′-untranslated region is 850 bp and a 5′-untranslated region of 149 bp was identified with an in-frame stop codon upstream of the ATG codon. […] No detectable XT activity was recovered by the affinity purification from a control transfection sample. The substrate specificity of the recombinant XT-I was similar to that of the XT-I isolated from human body fluids and cell culture supernatants.\nDetermination of XT activity. Determination of XT activity is based on the incorporation of [14C]-D-xylose into the recombinant bikunin according to a previously described method (Brinkmann et al., 1997, J. Biol. Chem., 272, 11171-11175). For analysis of the substrate specificity of the recombinant xylosyltransferases synthetic peptides containing the XT recognition sequence were used as acceptor. The reaction mixture for the assay contained, in a total volume of 100 μl: 50 μl of XT solution, 25 mM 4-morpholineethanesulfonic acid (pH 6.5), 25 mM KCl, 5 mM KF, 5 MM MgCl2, 5 mM MnCl2, 1.0 μM UDP-[^14C]-D-xylose, and 1.5 μM of the synthetic peptides. After incubation for 75 min at 37° C., the reaction mixtures were placed on discs (25 mm diameter) of Immobilon-AV membrane, which immobilizes even small peptides by covalent links (Pfund & Bourdage, 1990, Mol. Immunol. 27, 495-502), and allowed to dry. It was then washed for 10 min with 10% trichloroacetic acid and three times with 5% trichloroacetic acid solution. Incorporated radioactivity was determined by liquid scintillation counting.\nTransfection and transient expression of XT. For construction of a eukaryotic expression vector a DNA fragment including the known coding sequence of XT-I cDNA was amplified by PCR using XT_Exp1L 5′-[…]-3′ and XT_Exp3U 5′-[…]-3′ as primers and placenta first-strand cDNA (Clontech) as template. The 2450 bp fragment obtained was cloned into the vector pcDNA4/HisMax-TOPO (Invitrogen) resulting in the fusion of XT-I to the Xpress epitope. The plasmid pCG227-XT-I was then transiently transfected into CHO-K1 cells. The coding region of the XT-II cDNA was amplified by PCR using the primers AB_Exp9U 5′-AAAGGAAGGCAGAGGAAGC-3′ and AB_Exp3L 5′-ACCCCTCCACTGT-CTGTAAG-3′ and placenta first-strand cDNA as template. The obtained 2440 bp DNA fragment was cloned into the expression vector pcDNA4/HisMax-TOPO resulting in the fusion of XT-II to the aminoterminal Xpress epitope. The plasmid termed pCG226-XT-II was transiently transfected into CHO-K1 cells. 2×10^5 cells precultured for 1 day in a 35 mm diameter cell culture dish were transfected with 2 μg of plasmid DNA and 6 μl of Fugene 6 transfection reagent (Roche, Mannheim, Germany). For determination of transfection efficiency CHO-K1 cells were transfected with 2 μg of the control plasmid pcDNA4/HisMax-TOPO-lacZ. 48 h after transfection the cell culture medium was harvested. Protein G agarose beads (Sigma, Deisenhofen, Germany) and mouse anti-Xpress monoclonal antibody (Invitrogen) were added to the cell culture supernatant and incubated at 4° C. for 1 h. […]"}, "XT [1]": {"test_system": "XT", "assay": "Effect of protamine chloride added to the XT assay solution", "format": "biochemical, human", "text": "UDP-D-xylose: proteoglycan core protein β-D-xylosyltransferase can be isolated and purified from JAR choriocarcinoma cell culture. The isolated protein according to the invention is a single stranded polypeptide with a molecular weight of 120.000. The protein was enzymatically cleaved and eleven peptide fragments were sequenced by Edman degradation (see Examples). XT is present only in very small amounts in animal tissues but unlike other glycosyltransferases, more than 90% of XT is enriched in the medium of cultured cells. The highest secretion of XT activity was measured in JAR choriocarcinoma cell culture, in which sternal cartilage chondrocytes and 21 different human cell lines were examined. To produce a highly enriched XT solution for the isolation of XT, JAR choriocarcinoma cells were adapted to hollow fiber culture conditions using a novel bioreactor (TECNOMOUSE) and Ultradoma-PF medium without serum addition as nutrient. For purification of XT a combination of classic separation methods and new affinity matrices was employed. Therefore, a heparin matrix was used as an affinity ligand for the XT. […]\nDetermination of XT activity. […] Incorporated radioactivity was determined by liquid scintillation counting."}, "[2]": {"assay": "Storage stability of purified XT enzyme activity", "format": "physicochemical", "details": "purified XT after protamine affinity chromatography, stored at −75° C.", "description": "Step 4: Affinity chromatography on protamine chloride The product of step 3 was desalted and concentrated using dia- and ultrafiltration. […] Additional proteins were eluted with buffer A containing low NaCl concentrations. Enzyme activity was eluted at approximately 0.15 M NaCl (FIG. 1C). The enzyme activity was stable for at least 6 months at −75° C.\nStep 4: Affinity chromatography on protanine chloride—XT-containing solution from step 3 was desalted as described above and concentrated to 5 ml by ultrafiltration with YM1 cellulose membranes. The ultrafiltration product was passed through a 0.2 μm filter. 100 μl of the filtrate was loaded onto a protamine chloride—POROS column (4.6×50 mm) equilibrated with buffer A. The flow rate was 10 ml/min. The column was washed with 10.0 ml of buffer A, and the adsorbed fraction was eluted with the same buffer containing NaCl by a stepwise increase of the NaCl concentration: 6.6 ml buffer A/0.04 M NaCl; 6.6 ml buffer A/0,06 M NaCl; 6.6 ml buffer A/0.23 M NaCl followed by a linear gradient of 0.23-1.20 M NaCl (4.2 ml) in buffer A. Fractions of 6.0 ml were collected, assayed for XT activity and evaluated by SDS-PAGE. Cyclic chromatography was repeated 50 times. The purified enzyme was collected, concentrated to 1.0 ml using ultrafiltration techniques and stored at −75° C."}, "XT [3]": {"test_system": "XT", "details": "cited from earlier work"}}}
{"molecule": "QEEGSGGGGQK [Bikunin peptide QEEGSGGGGQK, synthetic bikunin homologous peptide used as XT acceptor]", "values": [{"measurement": "XT Activitiy pCG227-XT", "setting": "recombinant XT-I", "result": 463, "unit": "μU/l"}]}
{"molecule": "SENEGSGMAEQK [L-APLP2 peptide SENEGSGMAEQK, synthetic L-APLP2 homologous peptide used as XT acceptor]", "values": [{"measurement": "XT Activitiy pCG227-XT", "setting": "recombinant XT-I", "result": 515, "unit": "μU/l"}]}
{"molecule": "TENEGSGLTNIK [L-APP peptide TENEGSGLTNIK, synthetic L-APP homologous peptide used as XT acceptor]", "values": [{"measurement": "XT Activitiy pCG227-XT", "setting": "recombinant XT-I", "result": 492, "unit": "μU/l"}]}
{"molecule": "heparin", "values": [{"measurement": "inhibition of enzyme activity of recombinantly expressed XT-I", "setting": "recombinant XT-I; addition of 250 U of heparin", "result": "completely inhibited"}]}
{"molecule": "protamine chloride", "values": [{"measurement": "effect on XT activity", "setting": "XT [1]", "result": "increased XT activity"}]}
{"molecule": "B1", "values": [{"measurement": "time for which enzyme activity was stable", "setting": "[2]", "result": "at least 6 months"}]}
{"molecule": "B2", "values": [{"measurement": "XT Activitiy pCG227-XT", "setting": "recombinant XT-I", "result": 2854, "unit": "μU/l"}, {"measurement": "Km", "setting": "XT [3]; enriched XT preparation from conditioned cell culture supernatant of human chondrocytes, read-out: Michaelis-Menten (Km) constant for in vitro xylosylation", "result": 22, "unit": "µM"}, {"measurement": "decrease of Km in comparison to deglycosylated core protein from bovine cartilage", "setting": "XT [3]; enriched XT preparation from human chondrocytes", "result": 9, "unit": "fold"}]}
